According to IntAct's records for PubMed 17548836:

B1: Bone morphogenetic protein 1 (Homo sapiens), P13497 (parent)
chain: MPGVARLPLLLGLLLLPRPGRPLDLADYTYDLAEEDDSEPLNYKDPCKAAAFLGDIALDEEDLRAFQVQQAVDLRRHTARKSSIKAAVPGNTSTPSCQSTNGQPQRGACGRWRGRSRSRRAATSRPERVWPDGVIPFVIGGNFTGSQRAVFRQAMRHWEKHTCVTFLERTDEDSYIVFTYRPCGCCSYVGRRGGGPQAISIGKNCDKFGIVVHELGHVVGFWHEHTRPDRDRHVSIVRENIQPGQEYNFLKMEPQEVESLGETYDFDSIMHYARNTFSRGIFLDTIVPKYEVNGVKPPIGQRTRLSKGDIAQARKLYKCPACGETLQDSTGNFSSPEYPNGYSAHMHCVWRISVTPGEKIILNFTSLDLYRSRLCWYDYVEVRDGFWRKAPLRGRFCGSKLPEPIVSTDSRLWVEFRSSSNWVGKGFFAVYEAICGGDVKKDYGHIQSPNYPDDYRPSKVCIWRIQVSEGFHVGLTFQSFEIERHDSCAYDYLEVRDGHSESSTLIGRYCGYEKPDDIKSTSSRLWLKFVSDGSINKAGFAVNFFKEVDECSRPNRGGCEQRCLNTLGSYKCSCDPGYELAPDKRRCEAACGGFLTKLNGSITSPGWPKEYPPNKNCIWQLVAPTQYRISLQFDFFETEGNDVCKYDFVEVRSGLTADSKLHGKFCGSEKPEVITSQYNNMRVEFKSDNTVSKKGFKAHFFSDKDECSKDNGGCQQDCVNTFGSYECQCRSGFVLHDNKHDCKEAGCDHKVTSTSGTITSPNWPDKYPSKKECTWAISSTPGHRVKLTFMEMDIESQPECAYDHLEVFDGRDAKAPVLGRFCGSKKPEPVLATGSRMFLRFYSDNSVQRKGFQASHATECGGQVRADVKTKDLYSHAQFGDNNYPGGVDCEWVIVAEEGYGVELVFQTFEVEEETDCGYDYMELFDGYDSTAPRLGRYCGSGPPEEVYSAGDSVLVKFHSDDTITKKGFHLRYTSTKFQDTLHSRK
B2: Bone morphogenetic protein 1 (Homo sapiens), P13497 (parent)
chain: B1 chain
partner: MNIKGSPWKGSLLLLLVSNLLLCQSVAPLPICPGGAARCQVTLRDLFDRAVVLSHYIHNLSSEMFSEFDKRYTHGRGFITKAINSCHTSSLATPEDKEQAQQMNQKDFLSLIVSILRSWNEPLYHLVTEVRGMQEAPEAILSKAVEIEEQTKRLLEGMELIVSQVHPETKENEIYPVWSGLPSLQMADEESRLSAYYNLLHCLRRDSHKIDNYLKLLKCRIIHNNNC

Variants of: B1
Conditions: with soma_human GH1, P01241
Sequence of soma_human GH1, P01241 (P01241 whole entry): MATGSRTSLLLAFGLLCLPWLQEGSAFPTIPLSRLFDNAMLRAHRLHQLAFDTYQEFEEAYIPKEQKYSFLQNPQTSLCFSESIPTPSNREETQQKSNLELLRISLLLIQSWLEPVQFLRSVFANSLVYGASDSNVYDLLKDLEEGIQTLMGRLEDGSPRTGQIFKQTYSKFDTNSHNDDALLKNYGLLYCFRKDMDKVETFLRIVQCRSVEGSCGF

effect of a mutation on the interaction	Variant
disrupting interaction strength	E214A

Variants of: B2
Conditions: with prl_human PRL

effect of a mutation on the interaction	Variant
disrupting interaction strength	E214A
